Two molecules from publication PMC4778250 (ACS Central Science, 2015) can be followed below.

Assay [1] has as its target T1, mouse Class II MHC complex (Mus musculus C57BL/6 (H-2b; I-A b), UniProt P14434;P14483). The assay can be described thus: flow cytometry on cells. On the technique in general: In flow cytometry, cells or beads pass a laser one at a time.
The target in assay [2] is T1, mouse Class II MHC complex. Kind of assay: flow cytometry on cells. The source holds these as a separate data set.

T1 sequence (P14434 24-256, chain 1 of 2): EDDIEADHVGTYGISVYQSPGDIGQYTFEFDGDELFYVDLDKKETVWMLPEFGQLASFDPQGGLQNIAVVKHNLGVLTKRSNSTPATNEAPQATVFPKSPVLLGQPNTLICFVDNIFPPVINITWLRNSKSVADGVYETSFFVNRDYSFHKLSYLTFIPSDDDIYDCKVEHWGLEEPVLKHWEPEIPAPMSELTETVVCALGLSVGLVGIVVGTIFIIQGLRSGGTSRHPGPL
T1 sequence (P14483 28-265, chain 2 of 2): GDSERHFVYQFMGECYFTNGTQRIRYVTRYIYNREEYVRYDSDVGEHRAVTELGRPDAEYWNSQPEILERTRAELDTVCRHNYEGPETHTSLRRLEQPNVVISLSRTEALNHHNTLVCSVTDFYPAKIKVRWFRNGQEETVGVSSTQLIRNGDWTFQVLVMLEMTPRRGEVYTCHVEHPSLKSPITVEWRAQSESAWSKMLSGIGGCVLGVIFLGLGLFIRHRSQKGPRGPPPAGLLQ

B1: VHH7 (anti-mouse Class II MHC single domain antibody) (VHH)
VHH: QVQLQESGGGLVQAGDSLRLSCAASGRTFSRGVMGWFRRAPGKEREFVAIFSGSSWSGRSTYYSDSVKGRFTISRDNAKNTVYLQMNGLKPEDTAVYYCAAGYPEAYSAYGRESTYDYWGQGTQVTVSS
For orientation: EC50 means the concentration needed to bring the measured effect to its halfway point. Higher therefore signals a need for much substance. The molecule B1 registered a concentration for a half-maximal effect (EC50) in assay [1] of 55 to 60 nM.

B2: VHH4 (specific for human Class II MHC) (VHH)
VHH: QVQLQESGGGLVQAGGSLRLSCAASGSTLSSYGMGWYRQAPGKQREVVATISATGSISYADSVKGRFTISRDSAKNTMYLQLNSLTPEDTAVYYCNTIYRSTLYWGQGTQVTVSS
Regarding B2, the binding result in assay [2] is “no binding”.
